Test results taken from publication PMC4586593 (The Journal of General Physiology, 2015).
Values joined by “and” are separate entries in the source; they are usually repeats but may differ in a detail not shown here. Identical values can stand only once.

Target: actin from chicken pectoralis muscle (F-actin, TRITC-phalloidin labelled) (chicken, UniProt P68139 1-377)
Test: method of Cremo and Geeves

Kd: 15 nM and 25 nM
B1: smooth muscle myosin S1 head (domain or fragment)
chain 1: SQKPLSDDEKFLFVDKNFVNNPLAQADWSAKKLVWVPSEKHGFEAASIKEEKGDEVTVELQENGKKVTLSKDDIQKMNPPKFSKVEDMAELTCLNEASVLHNLRERYFSGLIYTYSGLFCVVINPYKQLPIYSEKIIDMYKGKKRHEMPPHIYAIADTAYRSMLQDREDQSILCTGESGAGKTENTKKVIQYLAVVASSHKGKKDTSITQGPSFSYGELEKQLLQANPILEAFGNAKTVKNDNSSRFGKFIRINFDVTGYIVGANIETYLLEKSRAIRQAKDERTFHIFYYLIAGASEQMRNDLLLEGFNNYTFLSNGHVPIPAQQDDEMFQETLEAMTIMGFTEEEQTSILRVVSSVLQLGNIVFKKERNTDQASMPDNTAAQKVCHLMGINVTDFTRSILTPRIKVGRDVVQKAQTKEQADFAIEALAKAKFERLFRWILTRVNKALDKTKRQGASFLGILDIAGFEIFEINSFEQLCINYTNEKLQQLFNHTMFILEQEEYQREGIEWNFIDFGLDLQPCIELIERPTNPPGVLALLDEECWFPKATDTSFVEKLIQEQGNHAKFQKSKQLKDKTEFCILHYAGKVTYNASAWLTKNMDPLNDNVTSLLNQSSDKFVADLWKDVDRIVGLDQMAKMTESSLPSASKTKKGMFRTVGQLYKEQLTKLMTTLRNTNPNFVRCIIPNHEKRAGKLDAHLVLEQLRCNGVLEGIRICRQGFPNRIVFQEFRQRYEILAANAIPKGFMDGKQACILMIKALELDPNLYRIGQSKIFFRTGVLAHLEEERDLKITDVIIAFQAQCRGYLARKAFAKRQQQLTAMKVIQRNCAAYLKLRNWQWWRLFTKVKP
chain 2: CDFSEEQTAEFKEAFQLFDRTGDGKILYSQCGDVMRALGQNPTNAEVMKVLGNPKSDEMNLKTLKFEQFLPMMQTIAKNKDQGCFEDYVEGLRVFDKEGNGTVMGAEIRHVLVTLGEKMTEEEVEQLVAGHEDSNGCINYEELVRMVLSG
chain 3: SSKRAKAKTTKKRPQRATSNVFAMFDQSQIQEFKEAFNMIDQNRDGFIDKEDLHDMLASMGKNPTDEYLEGMMSEAPGPINFTMFLTMFGEKLNGTDPEDVIRNAFACFDEEASGFIHEDHLRELLTTMGDRFTDEEVDEMYREAPIDKKGNFNYVEFTRILKHGAKDKDD
